{"source": "paper doi:10.1101/2022.05.16.492121", "about": "(bioRxiv, 2022)", "proteins": {"B1": {"name": "Saccharomyces cerevisiae septin complex (Cdc3, Cdc10, Cdc11, Cdc12), polymerizable hetero-oligomer (complex)", "chain 1": "MSLKEEQVSIKQDPEQEERQHDQFNDVQIKQESQDHDGVDSQYTNGTQNDDSERFEAAESDVKVEPGLGMGITSSQSEKGQVLPDQPEIKFIRRQINGYVGFANLPKQWHRRSIKNGFSFNLLCVGPDGIGKTTLMKTLFNNDDIEANLVKDYEEELANDQEEEEGQGEGHENQSQEQRHKVKIKSYESVIEENGVKLNLNVIDTEGFGDFLNNDQKSWDPIIKEIDSRFDQYLDAENKINRHSINDKRIHACLYFIEPTGHYLKPLDLKFMQSVYEKCNLIPVIAKSDILTDEEILSFKKTIMNQLIQSNIELFKPPIYSNDDAENSHLSERLFSSLPYAVIGSNDIVENYSGNQVRGRSYPWGVIEVDNDNHSDFNLLKNLLIKQFMEELKERTSKILYENYRSSKLAKLGIKQDNSVFKEFDPISKQQEEKTLHEAKLAKLEIEMKTVFQQKVSEKEKKLQKSETELFARHKEMKEKLTKQLKALEDKKKQLELSINSASPNVNHSPVPTKKKGFLR", "chain 2": "MDPLSSVQPASYVGFDTITNQIEHRLLKKGFQFNIMVVGQSGLGKSTLINTLFASHLIDSATGDDISALPVTKTTEMKISTHTLVEDRVRLNINVIDTPGFGDFIDNSKAWEPIVKYIKEQHSQYLRKELTAQRERFITDTRVHAILYFLQPNGKELSRLDVEALKRLTEIANVIPVIGKSDTLTLDERTEFRELIQNEFEKYNFKIYPYDSEELTDEELELNRSVRSIIPFAVVGSENEIEINGETFRGRKTRWSAINVEDINQCDFVYLREFLIRTHLQDLIETTSYIHYEGFRARQLIALKENANSRSSAHMSSNAIQR", "chain 3": "MSGIIDASSALRKRKHLKRGITFTVMIVGQSGSGRSTFINTLCGQQVVDTSTTILLPTDTSTEIDLQLREETVELEDDEGVKIQLNIIDTPGFGDSLDNSPSFEIISDYIRHQYDEILLEESRVRRNPRFKDGRVHCCLYLINPTGHGLKEIDVEFIRQLGSLVNIIPVISKSDSLTRDELKLNKKLIMEDIDRWNLPIYNFPFDEDEISDEDYETNMYLRTLLPFAIIGSNEVYEMGGDVGTIRGRKYPWGILDVEDSSISDFVILRNALLISHLHDLKNYTHEILYERYRTEALSGESVAAESIRPNLTKLNGSSSSSTTTRRNTNPFKQSNNINNDVLNPASDMHGQSTGENNETYMTREEQIRLEEERLKAFEERVQQELLLKRQELLQREKELREIEARLEKEAKIKQEE", "chain 4": "MSAATATAAPVPPPVGISNLPNQRYKIVNEEGGTFTVMLCGESGLGKTTFINTLFQTVLKRADGQQHRQEPIRKTVEIDITRALLEEKHFELRVNVIDTPGFGDNVNNNKAWQPLVDFIDDQHDSYMRQEQQPYRTKKFDLRVHAVLYFIRPTGHGLKPIDIETMKRLSTRANLIPVIAKADTLTAQELQQFKSRIRQVIEAQEIRIFTPPLDADSKEDAKSGSNPDSAAVEHARQLIEAMPFAIVGSEKKFDNGQGTQVVARKYPWGLVEIENDSHCDFRKLRALLLRTYLLDLISTTQEMHYETYRRLRLEGHENTGEGNEDFTLPAIAPARKLSHNPRYKEEENALKKYFTDQVKAEEQRFRQWEQNIVNERIRLNGDLEEIQGKVKKLEEQVKSLQVKKSHLK"}}, "target": "the molecule itself", "assay": "near-TIRF microscopy", "data": [{"protein": "B1", "values": [{"measurement": "binding result", "value": "binds"}]}]}
